Assay results: paper PMC6804253, “Predicting and Experimentally Validating Hot-Spot Residues at Protein–Protein Interfaces” (ACS Chemical Biology, 2019)

Columns and labels:
[1] = test system: PPIs of the SKEMPI data set (by PDBID); conditions: ref SKEMPI, cited from earlier work; for sk_ddG_kJ (SKEMPI experimental ΔΔG, single mutation to alanine): complex given by PDBID; for sk_ddG_kJ (SKEMPI experimental ΔΔG): r_group FAMILYVW; for sk_ddG_kJ (SKEMPI experimental ΔΔG of binding, mutation to alanine): single mutation to alanine in the complex of the given PDBID
[2] = test system: PPIs of the SKEMPI data set (by PDBID); test: SKEMPI experimental ΔΔG, single mutations to alanine; type: binding; conditions: for sk_class: class of the SKEMPI experimental ΔΔG; for sk_class (class of the SKEMPI experimental ΔΔG): ref SKEMPI
[3] = sheet sortedByGroup, r_group DERKH
[4] = single mutation to alanine, sheet sortedByGroup
[5] = Positive / Neutral / Negative by ΔΔG threshold 4.184 kJ/mol

B1: 1KTZ RA25A (protein, UniProt P10600 301-412, looked up, variant R25A)
Transforming growth factor …: ALDTNYCFRNLEENCCVRPLYIDFAQDLGWKWVHEPKGYYANFCSGPCPYLRSADTTHSTVLGLYNTLNPEASASPCCVPQDLEPLTILYYVGRTPKVEQLSNMVVKSCKCS
sk_ddG_kJ (SKEMPI experimental ΔΔG, single mutation to alanine) [1, 3]: 6.19 kJ | sk_class [2]: Positive (positive (a hot residue) ΔΔG ≥ 4.184 kJ/mol)

B2: 1KTZ RA94A (protein, UniProt P10600 301-412, looked up, variant R94A)
Transforming growth factor …: ALDTNYCFRNLEENCCVRPLYIDFRQDLGWKWVHEPKGYYANFCSGPCPYLRSADTTHSTVLGLYNTLNPEASASPCCVPQDLEPLTILYYVGATPKVEQLSNMVVKSCKCS
sk_ddG_kJ (SKEMPI experimental ΔΔG, single mutation to alanine) [1, 3]: 12.05 kJ | sk_class [2]: Positive (positive (a hot residue) ΔΔG ≥ 4.184 kJ/mol)

B3: 1A4Y WA261A (protein, UniProt P13489 2-461, looked up, variant W261A)
Ribonuclease inhibitor: SLDIQSLDIQCEELSDARWAELLPLLQQCQVVRLDDCGLTEARCKDISSALRVNPALAELNLRSNELGDVGVHCVLQGLQTPSCKIQKLSLQNCCLTGAGCGVLSSTLRTLPTLQELHLSDNLLGDAGLQLLCEGLLDPQCRLEKLQLEYCSLSAASCEPLASVLRAKPDFKELTVSNNDINEAGVRVLCQGLKDSPCQLEALKLESCGVTSDNCRDLCGIVASKASLRELALGSNKLGDVGMAELCPGLLHPSSRLRTLAIWECGITAKGCGDLCRVLRAKESLKELSLAGNELGDEGARLLCETLLEPGCQLESLWVKSCSFTAACCSHFSSVLAQNRFLLELQISNNRLEDAGVRELCQGLGQPGSVLRVLWLADCDVSDSSCSSLAATLLANHSLRELDLSNNCLGDAGILQLVESVRQPGCLLEQLVLYDIYWSEEMEDRLQALEKDKPSLRVIS
sk_ddG_kJ (SKEMPI experimental ΔΔG) [1, 4]: 0.38 kJ | sk_class [2]: Neutral (neutral (little effect) 4.184 kJ/mol < ΔΔG > −4.184 kJ/mol)

B4: 1A4Y WA318A (protein, UniProt P13489 2-461, looked up, variant W318A)
Ribonuclease inhibitor: SLDIQSLDIQCEELSDARWAELLPLLQQCQVVRLDDCGLTEARCKDISSALRVNPALAELNLRSNELGDVGVHCVLQGLQTPSCKIQKLSLQNCCLTGAGCGVLSSTLRTLPTLQELHLSDNLLGDAGLQLLCEGLLDPQCRLEKLQLEYCSLSAASCEPLASVLRAKPDFKELTVSNNDINEAGVRVLCQGLKDSPCQLEALKLESCGVTSDNCRDLCGIVASKASLRELALGSNKLGDVGMAELCPGLLHPSSRLRTLWIWECGITAKGCGDLCRVLRAKESLKELSLAGNELGDEGARLLCETLLEPGCQLESLAVKSCSFTAACCSHFSSVLAQNRFLLELQISNNRLEDAGVRELCQGLGQPGSVLRVLWLADCDVSDSSCSSLAATLLANHSLRELDLSNNCLGDAGILQLVESVRQPGCLLEQLVLYDIYWSEEMEDRLQALEKDKPSLRVIS
sk_ddG_kJ (SKEMPI experimental ΔΔG) [1, 4]: 6.19 kJ | sk_class [2]: Positive (positive (a hot residue) ΔΔG ≥ 4.184 kJ/mol)

B5: 1A4Y WA375A (protein, UniProt P13489 2-461, looked up, variant W375A)
Ribonuclease inhibitor: SLDIQSLDIQCEELSDARWAELLPLLQQCQVVRLDDCGLTEARCKDISSALRVNPALAELNLRSNELGDVGVHCVLQGLQTPSCKIQKLSLQNCCLTGAGCGVLSSTLRTLPTLQELHLSDNLLGDAGLQLLCEGLLDPQCRLEKLQLEYCSLSAASCEPLASVLRAKPDFKELTVSNNDINEAGVRVLCQGLKDSPCQLEALKLESCGVTSDNCRDLCGIVASKASLRELALGSNKLGDVGMAELCPGLLHPSSRLRTLWIWECGITAKGCGDLCRVLRAKESLKELSLAGNELGDEGARLLCETLLEPGCQLESLWVKSCSFTAACCSHFSSVLAQNRFLLELQISNNRLEDAGVRELCQGLGQPGSVLRVLALADCDVSDSSCSSLAATLLANHSLRELDLSNNCLGDAGILQLVESVRQPGCLLEQLVLYDIYWSEEMEDRLQALEKDKPSLRVIS
sk_ddG_kJ (SKEMPI experimental ΔΔG) [1, 4]: 4.31 kJ | sk_class [2]: Positive (positive (a hot residue) ΔΔG ≥ 4.184 kJ/mol)

B6: 1A4Y WA263A (protein, UniProt P13489 2-461, looked up, variant W263A)
Ribonuclease inhibitor: SLDIQSLDIQCEELSDARWAELLPLLQQCQVVRLDDCGLTEARCKDISSALRVNPALAELNLRSNELGDVGVHCVLQGLQTPSCKIQKLSLQNCCLTGAGCGVLSSTLRTLPTLQELHLSDNLLGDAGLQLLCEGLLDPQCRLEKLQLEYCSLSAASCEPLASVLRAKPDFKELTVSNNDINEAGVRVLCQGLKDSPCQLEALKLESCGVTSDNCRDLCGIVASKASLRELALGSNKLGDVGMAELCPGLLHPSSRLRTLWIAECGITAKGCGDLCRVLRAKESLKELSLAGNELGDEGARLLCETLLEPGCQLESLWVKSCSFTAACCSHFSSVLAQNRFLLELQISNNRLEDAGVRELCQGLGQPGSVLRVLWLADCDVSDSSCSSLAATLLANHSLRELDLSNNCLGDAGILQLVESVRQPGCLLEQLVLYDIYWSEEMEDRLQALEKDKPSLRVIS
sk_ddG_kJ (SKEMPI experimental ΔΔG) [1, 4]: 4.85 kJ | sk_class [2]: Positive (positive (a hot residue) ΔΔG ≥ 4.184 kJ/mol)

B7: 1A22 IB305A (protein, UniProt P10912 19-264, looked up, variant I105A)
extracellular domain: FSGSEATAAILSRAPWSLQSVNPGLKTNSSKEPKFTKCRSPERETFSCHWTDEVHHGTKNLGPIQLFYTRRNTQEWTQEWKECPDYVSAGENSCYFNSSFTSIWAPYCIKLTSNGGTVDEKCFSVDEIVQPDPPIALNWTLLNVSLTGIHADIQVRWEAPRNADIQKGWMVLEYELQYKEVNETKWKMMDPILTTSVPVYSLKVDKEYEVRVRSKQRNSGNYGEFSEVLYVTLPQMSQFTCEEDFY
modifications: extracellular domain
sk_ddG_kJ (SKEMPI experimental ΔΔG of binding, mutation to alanine) [1]: 0.54 kJ | sk_class (class of the SKEMPI experimental ΔΔG) [2, 5]: Neutral (neutral (little effect) 4.184 kJ/mol < ΔΔG > −4.184 kJ/mol)

B8: 1A22 EB291A (protein, UniProt P10912 19-264, looked up, variant E91A)
extracellular domain: FSGSEATAAILSRAPWSLQSVNPGLKTNSSKEPKFTKCRSPERETFSCHWTDEVHHGTKNLGPIQLFYTRRNTQEWTQEWKECPDYVSAGANSCYFNSSFTSIWIPYCIKLTSNGGTVDEKCFSVDEIVQPDPPIALNWTLLNVSLTGIHADIQVRWEAPRNADIQKGWMVLEYELQYKEVNETKWKMMDPILTTSVPVYSLKVDKEYEVRVRSKQRNSGNYGEFSEVLYVTLPQMSQFTCEEDFY
modifications: extracellular domain
sk_ddG_kJ (SKEMPI experimental ΔΔG, mutation to alanine) ([1]; single mutation to alanine, PPI given by PDBID, sheet sortedByGroup, r_group DERKH): 0.75 kJ | sk_class (class of the SKEMPI experimental ΔΔG) ([2]; class by ΔΔG threshold 4.184 kJ/mol): Neutral (neutral (little effect) 4.184 kJ/mol < ΔΔG > −4.184 kJ/mol)

B9: 1JRH KI52A (protein, UniProt P15260 18-245, looked up, variant K52A)
extracellular domain: EMGTADLGPSSVPTPTNVTIESYNMNPIVYWEYQIMPQVPVFTVEVKNYGVANSEWIDACINISHHYCNISDHVGDPSNSLWVRVKARVGQKESAYAKSEEFAVCRDGKIGPPKLDIRKEEKQIMIDIFHPSVFVNGDEQEVDYDPETTCYIRVYNVYVRMNGSEIQYKILTQKEDDCDEIQCQLAIPVSSLNSQYCVSAEGVLHVWGVTTEKSKEVCITIFNSSIKG
modifications: extracellular domain
sk_ddG_kJ (SKEMPI experimental ΔΔG, single mutation to alanine) [1, 3]: 15.86 kJ | sk_class [2]: Positive (positive (a hot residue) ΔΔG ≥ 4.184 kJ/mol)

B10: 1JRH RI84A (protein, UniProt P15260 18-245, looked up, variant R84A)
extracellular domain: EMGTADLGPSSVPTPTNVTIESYNMNPIVYWEYQIMPQVPVFTVEVKNYGVKNSEWIDACINISHHYCNISDHVGDPSNSLWVAVKARVGQKESAYAKSEEFAVCRDGKIGPPKLDIRKEEKQIMIDIFHPSVFVNGDEQEVDYDPETTCYIRVYNVYVRMNGSEIQYKILTQKEDDCDEIQCQLAIPVSSLNSQYCVSAEGVLHVWGVTTEKSKEVCITIFNSSIKG
modifications: extracellular domain
sk_ddG_kJ (SKEMPI experimental ΔΔG, single mutation to alanine) [1, 3]: 4.31 kJ | sk_class [2]: Positive (positive (a hot residue) ΔΔG ≥ 4.184 kJ/mol)

B11: 1JRH KI98A (protein, UniProt P15260 18-245, looked up, variant K98A)
extracellular domain: EMGTADLGPSSVPTPTNVTIESYNMNPIVYWEYQIMPQVPVFTVEVKNYGVKNSEWIDACINISHHYCNISDHVGDPSNSLWVRVKARVGQKESAYAASEEFAVCRDGKIGPPKLDIRKEEKQIMIDIFHPSVFVNGDEQEVDYDPETTCYIRVYNVYVRMNGSEIQYKILTQKEDDCDEIQCQLAIPVSSLNSQYCVSAEGVLHVWGVTTEKSKEVCITIFNSSIKG
modifications: extracellular domain
sk_ddG_kJ (SKEMPI experimental ΔΔG, single mutation to alanine) [1, 3]: 2.80 kJ | sk_class [2]: Neutral (neutral (little effect) 4.184 kJ/mol < ΔΔG > −4.184 kJ/mol)

B12: 2PCC DA34A (protein, UniProt P00431 68-361, looked up, variant D34A)
Cytochrome c peroxidase, …: TTPLVHVASVEKGRSYEDFQKVYNAIALKLREDAEYDNYIGYGPVLVRLAWHTSGTWDKHDNTGGSYGGTYRFKKEFNDPSNAGLQNGFKFLEPIHKEFPWISSGDLFSLGGVTAVQEMQGPKIPWRCGRVDTPEDTTPDNGRLPDADKDADYVRTFFQRLNMNDREVVALMGAHALGKTHLKNSGYEGPWGAANNVFTNEFYLNLLNEDWKLEKNDANNEQWDSKSGYMMLPTDYSLIQDPKYLSIVKEYANDQDKFFKDFSKAFEKLLENGITFPKDAPSPFIFKTLEEQGL
sk_ddG_kJ (SKEMPI experimental ΔΔG of binding, mutation to alanine) [1]: -3.81 kJ | sk_class (class of the SKEMPI experimental ΔΔG) [2, 5]: Neutral (neutral (little effect) 4.184 kJ/mol < ΔΔG > −4.184 kJ/mol)

B13: 2PCC EA290A (protein, UniProt P00431 68-361, looked up, variant E290A)
Cytochrome c peroxidase, …: TTPLVHVASVEKGRSYEDFQKVYNAIALKLREDDEYDNYIGYGPVLVRLAWHTSGTWDKHDNTGGSYGGTYRFKKEFNDPSNAGLQNGFKFLEPIHKEFPWISSGDLFSLGGVTAVQEMQGPKIPWRCGRVDTPEDTTPDNGRLPDADKDADYVRTFFQRLNMNDREVVALMGAHALGKTHLKNSGYEGPWGAANNVFTNEFYLNLLNEDWKLEKNDANNEQWDSKSGYMMLPTDYSLIQDPKYLSIVKEYANDQDKFFKDFSKAFEKLLENGITFPKDAPSPFIFKTLAEQGL
sk_ddG_kJ (SKEMPI experimental ΔΔG of binding, mutation to alanine) [1]: 25.90 kJ | sk_class (class of the SKEMPI experimental ΔΔG) [2, 5]: Positive (positive (a hot residue) ΔΔG ≥ 4.184 kJ/mol)
